Reference: article PMC4014428, “Enhanced Interaction between Pseudokinase and Kinase Domains in Gcn2 stimulates eIF2α Phosphorylation in Starved Cells” (PLoS Genetics, 2014)
Substitutions are numbered along the chain they refer to. In names and notes the source's numbering stands. One block for each binder: values may come before it.

Columns and labels:
[1] = target: T1, HA epitope-tagged LexA fusion to a Gcn2 KD segment (residues 720–999) (S. cerevisiae, UniProt P15442 720-999); test: co-IP; [35S]methionine-labelled in vitro translated YKD fragments incubated with 50 µg WCE of gcn2Δ yeast HQY132 expressing LexA-HA-KD(720–999); anti-HA agarose, 4°C 2 h, breaking buffer (50 mM Tris/HCl pH 7.5, 50 mM NaCl, 0.1% Triton, 1 mM DTT); SDS-PAGE and fluorography; pellet:input ratios normalised to WT YKD; conditions: partners not purified
T1 construct: the plasmid is PGAL-LexA-HA-GCN2 (720–999); also called HA-LexA-KD; LexA-HA-KD; source: yeast gcn2Δ strain HQY132, high-copy-number plasmid, in whole cell extract; not shown: LexA, N-terminal, kept; HA, N-terminal, kept

[2] = target: T1, HA epitope-tagged LexA fusion to a Gcn2 …; test: co-IP; WCEs (50 µg protein) of gcn2Δ yeast HQY132 co-expressing LexA-HA-KD(720–999) and Gcn2 (WT or mutant) immunoprecipitated with anti-HA antibodies; blots with anti-Gcn2 and anti-LexA; pellet:input ratios of Gcn2 normalised to LexA-HA-KD in the pellet, three experiments; conditions: partners not purified

level co-immunoprecipitated relative to WT YKD [1]: ~4 fold of WT
B1: Gcn2 YKD fragment (230–604) L527I (domain or fragment, S. cerevisiae, UniProt P15442 230-604, looked up)
chain: MFKFKAVVNPKPIKLTSDIFSFSKQFLVKPYIPPESPLADFLMSSEMMENFYYLLSEIELDNSYFNTSNGKKEIANLEKELETVLKAKHDNVNRLFGYTVERMGRNNATFVWKIRLLTEYCNYYPLGDLIQSVGFVNLATARIWMIRLLEGLEAIHKLGIVHKCINLETVILVKDADFGSTIPKLVHSTYGYTVLNMLSRYPNKNGSSVELSPSTWIAPELLKFNNAKPQRLTDIWQLGVLFIQIISGSDIVMNFETPQEFLDSTSMDETLYDLLSKMLNNDPKKRLGTLELLPMKFIRTNIDSTINRFNLVSESVNSNSLELTPGDTITVRGNGGRTLSQSSIRRRSFNVGSRFSSINPATRSRYASDFEEIAV
modifications: [35S]-methionine-labeled
notes: Gcn2 YKD segment, S. cerevisiae, residues 230-604; also called L527I YKD fragment; source: in vitro translated (TNT T7 Coupled Reticulocyte Lysate System), partially purified by ammonium sulfate precipitation

level co-immunoprecipitated relative to WT YKD [1]: 60 % of WT
B2: Gcn2 YKD fragment (230–604) R528A (domain or fragment, S. cerevisiae, UniProt P15442 230-604, looked up)
chain: B1 chain with I298L, R299A
modifications: [35S]-methionine-labeled
notes: Gcn2 YKD segment, S. cerevisiae, residues 230-604; also called R528A YKD fragment; source: in vitro translated (TNT T7 Coupled Reticulocyte Lysate System), partially purified by ammonium sulfate precipitation

level co-immunoprecipitated relative to WT YKD [1]: ~4 fold of WT
B3: Gcn2 YKD fragment (230–604) T518A/L527I (domain or fragment, S. cerevisiae, UniProt P15442 230-604, looked up)
chain: B1 chain with T289A
modifications: [35S]-methionine-labeled
notes: Gcn2 YKD segment, S. cerevisiae, residues 230-604; also called T518A/L527I YKD fragment; source: in vitro translated (TNT T7 Coupled Reticulocyte Lysate System), partially purified by ammonium sulfate precipitation

proportion co-immunoprecipitated relative to WT Gcn2 [2]: ~0.33 fraction of WT
B4: Gcn2-ΔYKD (enzyme, S. cerevisiae, UniProt P15442 1-1659, looked up)
chain: MSLSHLTLDQYYEIQCNELEAIRSIYMDDFTDLTKRKSSWDKQPQIIFEITLRSVDKEPVESSITLHFAMTPMYPYTAPEIEFKNVQNVMDSQLQMLKSEFKKIHNTSRGQEIIFEITSFTQEKLDEFQNVVNTQSLEDDRLQRIKETKEQLEKEEREKQQETIKKRSDEQRRIDEIVQRELEKRQDDDDDLLFNRTTQLDLQPPSEWVASGEAIVFSKTIKAKLPNNSMFKFKAVVNPKPIKLTSDIFSFSKQFLVKPYIPPESPLADFLMSSEMMENFYYLLSEIELDNSYFNTSNGKKEIANLEKELETVLKAKHDNVNRNLVSESVNSNSLELTPGDTITVRGNGGRTLSQSSIRRRSFNVGSRFSSINPATRSRYASDFEEIAVLGQGAFGQVVKARNALDSRYYAIKKIRHTEEKLSTILSEVMLLASLNHQYVVRYYAAWLEEDSMDENVFESTDEESDLSESSSDFEENDLLDQSSIFKNRTNHDLDNSNWDFISGSGYPDIVFENSSRDDENEDLDHDTSSTSSSESQDDTDKESKSIQNVPRRRNFVKPMTAVKKKSTLFIQMEYCENRTLYDLIHSENLNQQRDEYWRLFRQILEALSYIHSQGIIHRDLKPMNIFIDESRNVKIGDFGLAKNVHRSLDILKLDSQNLPGSSDNLTSAIGTAMYVATEVLDGTGHYNEKIDMYSLGIIFFEMIYPFSTGMERVNILKKLRSVSIEFPPDFDDNKMKVEKKIIRLLIDHDPNKRPGARTLLNSGWLPVKHQDEVIKEALKSLSNPSSPWQQQVRESLFNQSYSLTNDILFDNSVPTSTPFANILRSQMTEEVVKIFRKHGGIENNAPPRIFPKAPIYGTQNVYEVLDKGGTVLQLQYDLTYPMARYLSKNPSLISKQYRMQHVYRPPDHSRSSLEPRKFGEIDFDIISKSSSESGFYDAESLKIIDEILTVFPVFEKTNTFFILNHADILESVFNFTNIDKAQRPLVSRMLSQVGFARSFKEVKNELKAQLNISSTALNDLELFDFRLDFEAAKKRLYKLMIDSPHLKKIEDSLSHISKVLSYLKPLEVARNVVISPLSNYNSAFYKGGIMFHAVYDDGSSRNMIAAGGRYDTLISFFARPSGKKSSNTRKAVGFNLAWETIFGIAQNYFKLASGNRIKKRNRFLKDTAVDWKPSRCDVLISSFSNSLLDTIGVTILNTLWKQNIKADMLRDCSSVDDVVTGAQQDGIDWILLIKQQAYPLTNHKRKYKPLKIKKLSTNVDIDLDLDEFLTLYQQETGNKSLINDSLTLGDKADEFKRWDENSSAGSSQEGDIDDVVAGSTNNQKVIYVPNMATRSKKANKREKWVYEDAARNSSNMILHNLSNAPIITVDALRDETLEIISITSLAQKEEWLRKVFGSGNNSTPRSFATSIYNNLSKEAHKGNRWAILYCHKTGKSSVIDLQR
notes: Gcn2, S. cerevisiae, otherwise full length, lacking the pseudokinase domain (YKD); also called gcn2-Δ324-538; source: yeast gcn2Δ strain HQY132, high-copy plasmid (p630 backbone), in whole cell extract
